Where a chain is given by its changes, count along the chain named. Names may count otherwise. Read-outs that look alike come from different tables or passages of the source.
B1: Rhizavidin (RA): natural dimeric avidin protein from Rhizobium etli; core rhizavidin SEQ ID NO: 1 (protein)
chain: FDASNFKDFSSIASASSSWQNQSGSTMIIQVDSFGNVSGQYVNRAQGTGCQNSPYPLTGRVNGTFIAFSVGWNNSTENCNSATGWTGYAQVNGNNTEIVTSWNLAYEGGSGPAIEQGQDTFQYVPTTE
modifications: amino acid sequence of truncated Rhizavidin
B2: Monodin (MA): monomeric avidin-like protein of SEQ ID NO: 3; mRA further carrying S23H, Q46E and E115W (protein)
chain: B1 chain with S23H, Q46E, A67D, G71K, A82N, G84Q, S101R, A105K, E115W
modifications: amino acid sequence of MA
notes: mRA further carrying S23H, Q46E and E115W
B3: mRA: monomeric rhizavidin with six interfacial mutations (SEQ ID NO: 2) (protein)
chain: B1 chain with A67D, G71K, A82N, G84Q, S101R, A105K
modifications: amino acid sequence of mRA
B4: mRAWW: mRA with two tryptophan mutations (E115W and S23W) (protein)
chain: B1 chain with S23W, A67D, G71K, A82N, G84Q, S101R, A105K, E115W

Assays:
[1] = test system: biotin-AP; assay: Gel-based off-rate measurement against biotin-AP peptide; assay type: binding; details: 37° C., excess biotin
[2] = test system: biotin-protein G; assay: Gel-based off-rate measurement against biotin-protein G; assay type: binding; details: 37° C., excess biotin
[3] = molecular target: T1, biotin-GFP (Aequorea victoria, UniProt P42212, A206V/E111V/F223Y/F64L/F99S/I128T/I167V/I171V/K158E/K166T/K26E/L221H/M153T/N105K/N149D/N164E/Q80R/S205T/S30R/S65T/T225N/V163A/Y145F/Y39I); details: for percentage of dissociated biotin conjugate after 10 h incubation with excess biotin / Dissociation rate: Biotin-GFP; for percentage of dissociated biotin conjugate after 10 h incubation with excess biotin: 23° C.; for Dissociation rate: excess biotin; for dissociation of biotin-GFP from mRA mutants (in words): mutants at E115, Q46, S23, biotin addition, 45° C. for 30 min
Protocol: After incubation at the indicated temperature (23° C., 37° C., or 45° C.) for varying time points (between 0 to 10 h), protein-conjugate mixtures were loaded onto a 15% native polyacrylamide gel. […] Data as ln(fraction bound) versus time and fitting the data to a straight line by linear regression.

[4] = test system: biotin-DNA; assay: Gel-based off-rate measurement against biotin-DNA-fluorescein; assay type: binding; details: for percentage of dissociated biotin conjugate after 10 h incubation with excess biotin: 23° C.
[5] = molecular target: T1, biotin-GFP; details: 15% native-PAGE
Excerpt: To monomerize rhizavidin, the present inventors introduced various numbers (one, six, and ten) of charged and hydrophilic amino acids, which have long side chains, at the dimeric interface (FIG. 1(a) and FIG. 4).

[6] = immobilized biotin or biotin-GFP, avidin proteins 5 μM
Protocol: Surface Plasmon Resonance (SPR) Analysis
SPR tests were performed in a Biacore 3000 instrument using dextran CM5 gold chips (GE Healthcare) and a PBS buffer as a running solution.

[7] = test system: HeLa cells; assay: Clustering and internalization of biotinylated cell-surface proteins; assay type: cell-based; details: Cy5-labeled avidin proteins, 37° C.
Protocol: Following biotinylation, the cells were washed twice with cold PBS-CM, treated with 100 mM glycine in PBS-CM for blocking, and washed again twice with cold PBS. […] Unbound avidin proteins were removed, and media was replaced with pre-warmed DMEM (37° C.). Cells were incubated for 5, 10, or 30 m at 37° C. Cells were washed, and fixed with 4% formaldehyde in PBS for confocal imaging (ZEISS, LSM510 META). To visualize endosome or lysozome-specific proteins, cells were fixed, permeabilized, and incubated with a primary antibody: anti-Rab11 (a GTPase of recycling endosome, Abcham) or anti-LAM P1 (Lysosomal-associated membrane protein 1, Abcham). Afterward, cells were incubated with a fluorescent secondary antibody (goat anti-rabbit 555, Abcham), and images were acquired with a confocal microscopy (ZEISS, LSM510 META).

[8] = Stability / aggregation of monomerized proteins in buffered solutions; assay type: physicochemical; details: up to 1 mg/ml where stated

Molecule | Dissociation rate [1] | Dissociation rate [2] | percentage of dissociated biotin conjugate after 10 h incubation with excess biotin [3] | Dissociation rate ([3]; 37° C.) | Dissociation rate ([3]; 45° C.) | percentage of dissociated biotin conjugate after 10 h incubation with excess biotin [4] | complexes formed with biotin-GFP [5] | dissociation from surface-bound biotin conjugates by SPR [6] | incubation time after which avidin protein was internalized [7] | percentage of dissociated biotin conjugate after 10 h incubation with excess biotin ([3]; listed as MA) | dissociation of biotin-GFP from mRA mutants (in words) [3] | percentage of dissociated biotin conjugate after 10 h incubation with excess biotin ([4]; listed as monodin) | Dissociation rate ([4]; 37° C., excess biotin) | stability / aggregation in buffered solutions [8] | biotin-GFP dissociated after biotin addition ([3]; excess free biotin, 37° C. for 30 min, native-PAGE)
B1 | 4.9 ± 0.7 × 10^−5 s^−1 | 3.2 ± 0.8 × 10^−5 s^−1 | 18 ± 3.0% for 10 h* | 5.0 ± 0.1 × 10^−5 s^−1 | 6.0 ± 0.6 × 10^−5 s^−1 | 48 ± 6.1% for 10 h* | two separated complexes | – | – | – | – | – | – | – | –
B2 | 5.1 ± 0.7 × 10^−5 s^−1 | 4.6 ± 1.5 × 10^−5 s^−1 | 6.7 ± 1.1% for 10 h* | 2.3±0.1×10^−5 s^−1 | 6.4±0.2×10^−5 s^−1 | 22 ± 6.0% for 10 h* | – | not observed | 30 min | less than 7% | highly slowed off-rate | 22% | 2.7±0.3×10^−5 s^−1 | – | –
B3 | – | – | – | – | – | – | – | – | – | – | – | – | – | stable without any aggregation | Over 40%
B4 | – | – | – | – | – | – | – | – | – | – | the least dissociation of biotin-GFP | – | – | highly prone to aggregation | –
